The target in the test is Staphylococcus aureus enterotoxin C3, wild type (Staphylococcus aureus) (UniProt P0A0L5). The test can be described thus: ITC. Background: Isothermal titration calorimetry measures the heat released or taken up as one component is titrated into another.

Consider “variable domain of the murine T cell receptor (TCR) β chain 8.2 (domain or fragment)”, for which the dH is -4.88 kcal/mol.
